Data taken from paper PMC9986279, “Biochemical and genetic examination of two aminotransferases from the hyperthermophilic archaeon Thermococcus kodakarensis” (Frontiers in Microbiology, 2023).

How the values were obtained:
TK0548 protein = target: T1, TK0548 protein (Thermococcus kodakarensis, UniProt Q5JF51); assay: aminotransferase activity with and without added PLP; assay type: biochemical; details: 20 μM PLP, 50 mM HEPES pH 7.4, 80°C
T1 construct: full length, no tag (own stop codon in primer), pET21a(+), E. coli BL21-CodonPlus(DE3)-RIL; monomer 43,608 Da, dimer (85 kDa)
T1 sequence (Q5JF51 1-389): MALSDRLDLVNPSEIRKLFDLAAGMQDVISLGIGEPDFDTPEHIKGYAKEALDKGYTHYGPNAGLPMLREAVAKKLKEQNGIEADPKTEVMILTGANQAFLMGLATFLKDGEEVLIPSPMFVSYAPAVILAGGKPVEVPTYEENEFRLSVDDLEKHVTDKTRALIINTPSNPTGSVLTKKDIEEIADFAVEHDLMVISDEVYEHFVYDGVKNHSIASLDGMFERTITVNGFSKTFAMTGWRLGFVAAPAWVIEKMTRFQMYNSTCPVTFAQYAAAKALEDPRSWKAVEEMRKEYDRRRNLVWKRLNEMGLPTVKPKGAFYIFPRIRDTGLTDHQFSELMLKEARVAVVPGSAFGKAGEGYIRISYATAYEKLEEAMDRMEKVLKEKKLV

TK2268 protein = target: T2, TK2268 protein (Thermococcus kodakarensis, UniProt Q5JHU0); assay: as above; assay type: biochemical; details: 20 μM PLP, 50 mM HEPES pH 7.4, 80°C
T2 construct: full length, C-terminal His6-tag kept, expressed in T. kodakarensis KPD2; monomer 45,116 Da; dimer (98 kDa) that may assemble to octamer (327 kDa)

purified protein = substrate: N[C@@H](CC(=O)O)C(=O)O; assay: purified protein; details: 10 mM pyruvate, 20 μM PLP, 50 mM HEPES pH 7.4, 80°C
[1] = substrate: O=C(O)CCC(=O)C(=O)O; assay: aminotransferase assay, Glu formed quantified by HPLC after o-phthalaldehyde derivatization; assay type: biochemical, Thermococcus kodakarensis; details: 50 mM Leu, 20 μM PLP, 50 mM HEPES pH 7.4, 80°C
From the text: (§1) aminotransferase assay, Glu formed quantified by HPLC after o-phthalaldehyde derivatization on TK2268 protein

[2] = substrate: N[C@@H](Cc1ccc(O)cc1)C(=O)O; assay: as above; assay type: biochemical, Thermococcus kodakarensis; details: 10 mM 2-oxoglutarate, 20 μM PLP, 50 mM HEPES pH 7.4, 80°C
From the text: as §1

[3] = substrate: N[C@@H](CCC(=O)O)C(=O)O; assay: aminotransferase assay, Ala formed quantified by HPLC after o-phthalaldehyde derivatization; assay type: biochemical, Thermococcus kodakarensis; details: 10 mM pyruvate, 20 μM PLP, 50 mM HEPES pH 7.4, 80°C
From the text: (§2) aminotransferase assay, Ala formed quantified by HPLC after o-phthalaldehyde derivatization on TK2268 protein

[4] = substrate: CC(=O)C(=O)O; assay: as above; assay type: biochemical, Thermococcus kodakarensis; details: 50 mM Leu, 20 μM PLP, 50 mM HEPES pH 7.4, 80°C
From the text: as §2

[5] = substrate: CC(C)C[C@H](N)C(=O)O; assay: as above; assay type: biochemical, Thermococcus kodakarensis; details: 10 mM pyruvate, 20 μM PLP, 50 mM HEPES pH 7.4, 80°C
From the text: as §2

[6] = substrate: CC(=O)C(=O)O; assay: as above; assay type: biochemical, Thermococcus kodakarensis; details: 10 mM Phe, 20 μM PLP, 50 mM HEPES pH 7.4, 80°C
From the text: aminotransferase assay, Ala formed quantified by HPLC after o-phthalaldehyde derivatization on TK0548 protein

[7] = substrate: O=C(O)CCC(=O)C(=O)O; assay: aminotransferase assay, Glu formed quantified by HPLC after o-phthalaldehyde derivatization; assay type: biochemical, Thermococcus kodakarensis; details: 10 mM Phe, 20 μM PLP, 50 mM HEPES pH 7.4, 80°C
From the text: (§3) aminotransferase assay, Glu formed quantified by HPLC after o-phthalaldehyde derivatization on TK0548 protein

[8] = substrate: N[C@@H](Cc1ccccc1)C(=O)O; assay: as above; assay type: biochemical, Thermococcus kodakarensis; details: 10 mM 2-oxoglutarate, 20 μM PLP, 50 mM HEPES pH 7.4, 80°C
From the text: as §3

[9] = substrate: N[C@@H](Cc1ccc(O)cc1)C(=O)O; assay: as above; assay type: biochemical, Thermococcus kodakarensis; details: 10 mM 2-oxoglutarate, 20 μM PLP, 50 mM HEPES pH 7.4, 80°C; remark: listed apart in the source
From the text: as §3

[10] = substrate: N[C@@H](Cc1c[nH]cn1)C(=O)O; assay: as above; assay type: biochemical, Thermococcus kodakarensis; details: 10 mM 2-oxoglutarate, 20 μM PLP, 50 mM HEPES pH 7.4, 80°C
From the text: as §3

[11] = substrate: N[C@@H](Cc1c[nH]c2ccccc12)C(=O)O; assay: as above; assay type: biochemical, Thermococcus kodakarensis; details: 10 mM 2-oxoglutarate, 20 μM PLP, 50 mM HEPES pH 7.4, 80°C
From the text: as §3

[12] = substrate: CSCC[C@H](N)C(=O)O; assay: as above; assay type: biochemical, Thermococcus kodakarensis; details: 10 mM 2-oxoglutarate, 20 μM PLP, 50 mM HEPES pH 7.4, 80°C
From the text: as §3

Cc1ncc(COP(=O)(O)O)c(C=O)c1O [pyridoxal 5′-phosphate]
aminotransferase activity with and without added PLP (TK0548 protein): suggesting that the TK0548 and TK2268 proteins are PLP-dependent aminotransferases | aminotransferase activity with and without added PLP (TK2268 protein): suggesting that the TK0548 and TK2268 proteins are PLP-dependent aminotransferases

B1: TK2268 protein (Thermococcus kodakarensis KOD1) (protein)
chain: MRYKKRKYFMAGRINILQRSKIRELFEKASKMENVISLGIGEPDFDTPEVIKEAAKRAIDEGYTHYTPNAGIPEFREAIAEYYKEFYNVDVDMNNIIVTAGAYEATYLAFESILEQGDDVIIPDPAFVCYVEDAKIAEAGIIRIPLREENKFRIDPDELLEAITKRTRMIVMNYPNNPTGAIMKKDVAKAIADIAQDYNIYILSDEPYEHFLYEGARHHPMIKYAPDNTILANSFSKTFAMTGWRLGFAIAPEQVIRDMIKLHAYVIGNVTSFIQIAGITALRDKRSWEAVERMRQVYDERRKLVLKYLNDMPHITPFRPKGAFYIWAKIDPELDMTSEDFAEWLLENAGVVVIPGTAFGRQGEGWIRISYATEKEKLIEAMERMKEALSKL
notes: full length, C-terminal His6-tag kept, expressed in T. kodakarensis KPD2; monomer 45,116 Da; dimer (98 kDa) that may assemble to octamer (327 kDa)
Km (purified protein): 2140 ± 220 µM | Vmax (purified protein): 5.42 µmol/min/mg | kcat (purified protein): 4.07 s⁻¹ | kcat/Km (purified protein): 1900 M⁻¹ s⁻¹ | Km [1]: 190 ± 30 µM | Vmax [1]: 4.45 µmol/min/mg | kcat [1]: 3.35 ± 0.15 s⁻¹ | kcat/Km [1]: 17600 M⁻¹ s⁻¹ | Km [2]: 1450 ± 260 µM | Vmax [2]: 0.34 µmol/min/mg | kcat [2]: 0.26 ± 0.02 s⁻¹ | kcat/Km [2]: 180 M⁻¹ s⁻¹ | Km [3]: 2170 ± 270 µM | Vmax [3]: 7.42 µmol/min/mg | kcat [3]: 5.57 ± 0.23 s⁻¹ | kcat/Km [3]: 2570 M⁻¹ s⁻¹ | Km [4]: 2720 ± 350 µM | Vmax [4]: 3.76 µmol/min/mg | kcat [4]: 2.83 ± 0.16 s⁻¹ | kcat/Km [4]: 1040 M⁻¹ s⁻¹ | Km [5]: 36300 ± 4300 µM | Vmax [5]: 4.68 µmol/min/mg | kcat [5]: 3.52 ± 0.23 s⁻¹ | kcat/Km [5]: 100 M⁻¹ s⁻¹

B2: TK0548 protein (Thermococcus kodakarensis KOD1) (protein)
chain: T1 sequence (Q5JF51 1-389)
notes: full length, no tag (own stop codon in primer), pET21a(+), E. coli BL21-CodonPlus(DE3)-RIL; monomer 43,608 Da, dimer (85 kDa)
Km [6]: 48000 ± 5000 µM | Vmax [6]: 137 µmol/min/mg | kcat [6]: 100 ± 7 s⁻¹ | kcat/Km [6]: 2070 M⁻¹ s⁻¹ | Km [7]: 1500 ± 200 µM | Vmax [7]: 334 µmol/min/mg | kcat [7]: 243 ± 10 s⁻¹ | kcat/Km [7]: 162000 M⁻¹ s⁻¹ | Km [8]: 670 ± 60 µM | Vmax [8]: 483 µmol/min/mg | kcat [8]: 351 ± 10 s⁻¹ | kcat/Km [8]: 524000 M⁻¹ s⁻¹ | Km [9]: 1400 ± 200 µM | Vmax [9]: 419 µmol/min/mg | kcat [9]: 305 ± 19 s⁻¹ | kcat/Km [9]: 218000 M⁻¹ s⁻¹ | Km [10]: 4400 ± 400 µM | Vmax [10]: 179 µmol/min/mg | kcat [10]: 130 ± 6 s⁻¹ | kcat/Km [10]: 29600 M⁻¹ s⁻¹ | Km [11]: 1100 ± 100 µM | Vmax [11]: 359 µmol/min/mg | kcat [11]: 261 ± 10 s⁻¹ | kcat/Km [11]: 237000 M⁻¹ s⁻¹ | Km [12]: 64000 ± 9000 µM | Vmax [12]: 169 µmol/min/mg | kcat [12]: 123 ± 14 s⁻¹ | kcat/Km [12]: 1920 M⁻¹ s⁻¹
